Key:
Assay in all cases: BLI
[1] = target: gp120 AE (clade E, 93TH976.17) (HIV-1 isolate 93TH976.17)
[2] = target: gp120 B (clade B, 92US715.6) (HIV-1 isolate 92US715.6)
[3] = target: T1, gp120 A2 (clade A, 92UG037.8) (HIV-1 isolate 92UG037.8)
[4] = target: T2, gp120 Czm (clade C, 96ZM652) (HIV-1 isolate 96ZM652)
Bal gp120 [5] = target: Bal gp120 (HIV-1 isolate Bal)
[6] = target: T1, gp120 A2 (clade A, 92UG037.8); remark: listed apart in the source
[7] = target: T2, gp120 Czm (clade C, 96ZM652); remark: listed apart in the source
Bal gp120 [8] = target: Bal gp120 (HIV-1 isolate Bal); remark: listed apart in the source

B1: HmAb64 (antibody, V domains shown)
VH: QVQLVQSGAEVKKPGASVKVSCKASGYTFTSYDITWVRQAPGQGLEWMGWISAYNGDTNYAQRLQGRVTMTTDTSTSTAYMELRSLRSDDTAVYYCARAKHTVLVTAMRWFDPWGQGTLVTVSS
VL: DIQMTQSPSSLSASVGDRVTITCRASQSISNYLNWYQQKPGKAPKLLISATSSLQSGVPSRFSGSGSGTDFTLTISSLQPDDFATYYCQQSYSTPWTFGQGTKLEIK
Question: With B1 as the binder, how does the Kd [1] read?
Answer: 20 nM

Question: And the koff [1]?
Answer: 0.000423 s⁻¹

Question: And the Kd [2]?
Answer: 22.9 nM

Question: And the koff [2]?
Answer: 0.000684 s⁻¹

Question: And the Kd [3]?
Answer: 39.4 nM

Question: And the Kd [4]?
Answer: 22.5 nM

Question: And the Kd (Bal gp120 [5])?
Answer: 16 nM

Question: And the koff [6]?
Answer: 0.000641 s⁻¹

Question: What about the koff [7] of the same binder?
Answer: 0.000454 s⁻¹

Question: And the koff (Bal gp120 [8])?
Answer: 0.000459 s⁻¹

Reference: PMC11109196 (2024)
